Four molecules from PMC11332595 can be followed below.

Data set [1] addresses MapSPARTA (binary complex of TIR-APAZ and Ago), wild type (Maribacter polysiphoniae). As to the kind of experiment: cryo-EM structure.
For data set [2] the target is unchanged. As to the kind of experiment: cryo-EM structure. This is another data set of the same source.
Data set [3] has the same target. Briefly: SEC. For orientation: Size exclusion chromatography separates by hydrodynamic size, large species first.
The target is the same in data set [4]. As to the kind of experiment: cryo-EM structure. The source holds these as a separate data set.
The target of data set [5] is MapSPARTA V113R (TIR-APAZ V113R with Ago) (Maribacter polysiphoniae). Briefly: SEC.
Data set [6] addresses MapSPARTA V113R/D106R/D111R (TIR-APAZ triple mutant with Ago) (Maribacter polysiphoniae). As to the kind of experiment: SEC.
In data set [7] the target is T1, MapSPARTA WT (Ago + TIR-APAZ) (Maribacter polysiphoniae, UniProt A0A316E3U6;A0A316E683 1-507;1-450).
T1 sequence 1: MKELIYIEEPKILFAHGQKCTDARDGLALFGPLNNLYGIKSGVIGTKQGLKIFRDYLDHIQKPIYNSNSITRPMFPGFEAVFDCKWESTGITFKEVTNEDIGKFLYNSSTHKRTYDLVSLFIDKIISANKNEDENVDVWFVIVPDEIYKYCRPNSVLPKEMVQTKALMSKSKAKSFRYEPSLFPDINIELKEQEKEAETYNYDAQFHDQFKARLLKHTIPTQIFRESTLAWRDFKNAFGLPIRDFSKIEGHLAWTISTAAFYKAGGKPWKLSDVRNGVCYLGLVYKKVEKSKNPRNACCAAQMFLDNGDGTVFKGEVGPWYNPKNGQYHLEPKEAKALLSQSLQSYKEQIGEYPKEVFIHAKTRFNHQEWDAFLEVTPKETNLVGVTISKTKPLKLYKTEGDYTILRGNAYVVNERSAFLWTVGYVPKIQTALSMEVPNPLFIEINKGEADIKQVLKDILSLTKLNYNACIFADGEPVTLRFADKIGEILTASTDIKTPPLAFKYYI
T1 sequence 2: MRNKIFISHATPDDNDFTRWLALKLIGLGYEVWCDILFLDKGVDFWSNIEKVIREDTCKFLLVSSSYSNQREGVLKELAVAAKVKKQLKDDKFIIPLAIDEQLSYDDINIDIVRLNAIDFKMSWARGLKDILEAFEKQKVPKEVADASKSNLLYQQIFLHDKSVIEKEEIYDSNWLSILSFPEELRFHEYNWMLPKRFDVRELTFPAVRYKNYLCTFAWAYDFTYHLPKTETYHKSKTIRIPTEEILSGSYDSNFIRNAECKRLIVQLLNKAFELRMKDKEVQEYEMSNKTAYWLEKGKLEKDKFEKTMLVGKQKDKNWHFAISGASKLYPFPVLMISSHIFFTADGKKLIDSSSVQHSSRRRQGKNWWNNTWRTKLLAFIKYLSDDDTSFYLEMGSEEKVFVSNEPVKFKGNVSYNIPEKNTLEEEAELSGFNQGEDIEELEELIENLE
As to the kind of experiment: BLI. For orientation: In BLI a coated tip is dipped into the sample, and binding shifts an interference pattern.

Broadly, the stoichiometry N is a count of units in the complex or per binding partner. Consider “MapSPARTA (binary complex of TIR-APAZ and Ago), wild type”, for which the stoichiometry N in data set [1] was determined as 2; in data set [2], 4; in data set [3], 4; in data set [4] it was 4. In turn, “MapSPARTA V113R (TIR-APAZ V113R with Ago) (complex)” gave a stoichiometry N in data set [5] of 2. As for “MapSPARTA V113R/D106R/D111R (TIR-APAZ triple mutant with Ago) (complex)”, the stoichiometry N in data set [6] was 2.

B1: guide RNA + biotinylated target DNA (BLI) (DNA:RNA)
RNA: UGACGGCUCUAAUCUAUUAGU
DNA: CAACTAATAGATTAGAGCCGTCAAT
modifications: 5'-phosphate on guide RNA
What is called Kd is the equilibrium constant for the complex coming apart. For B1, the Kd in data set [7] amounted to 13.5 nM.
